Test results as given in the supplement of paper PMC10567573.

B1: DLC1 (parent)
chain: AIQGISEKEKAEIEAKEACDWLRA

Variants of: B1
Experiment: protein stability index of a GFP-peptide fusion (GPS, HEK-293T) (PSI 1-6); higher = more stable
Details: c terminus: a fixed tail appended
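Also: lentivirally expressed fusions sorted by FACS into six bins by GFP to DsRed ratio, PSI derived from sequencing read proportions per bin multiplied by bin number.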

Protein stability index of substitutions, site by site:
A15: R 4.18 | I 3.91 | Q 4.52 | M 4.24 | V 4.53 | S 4.81 | N 4.24 | L 4 | D 4.4 | T 3.76 | P 4.51 | G 3.97 | Y 4.33 | K 4.61 | F 3.57 | C 4.29 | E 4.81 | W 3.65 | H 4.33
E7: I 3.63 | P 3.71 | A 4.25 | W 3.58 | K 4.3 | M 3.67 | Y 3.63 | H 3.86 | L 3.06 | C 3.61 | T 4.14 | D 4.39 | F 3.44 | G 4.22 | N 3.72 | S 4.15 | V 3.88 | R 3.62 | Q 4.06
A11: K 4.47 | F 3.64 | T 4.67 | W 3.53 | L 4.23 | E 4.87 | H 4.34 | Q 4.57 | I 3.67 | C 4.32 | G 4.56 | S 4.79 | N 4.5 | M 3.99 | V 4.61 | R 4.23 | Y 4.16 | D 5.18 | P 4.51
I13: H 4.88 | T 4.16 | L 4.21 | R 4.53 | Q 4.44 | C 5.09 | P 5.13 | D 5.06 | A 4.7 | K 4.89 | F 3.94 | W 4.26 | G 5.08 | V 4.64 | E 5.08 | M 4.78 | S 4.85 | Y 4.46 | N 4.66
E14: S 3.93 | T 4.34 | Y 3.91 | P 4.12 | K 3.5 | M 3.59 | C 4.07 | I 3.81 | F 3.78 | D 4.58 | H 3.74 | Q 4.36 | V 3.24 | G 3.73 | N 3.54 | L 3.87 | A 4.1 | R 3.61 | W 2.86
S6: F 3.86 | N 4.54 | C 4.3 | A 4.31 | P 4.88 | Q 4.74 | M 4.04 | E 4.99 | I 3.58 | L 3.56 | R 4.46 | V 4.14 | G 4.39 | H 4.28 | K 3.96 | Y 3.48 | T 4.73 | D 4.84 | W 3.71
K16: H 4.32 | I 4.16 | W 4.09 | R 4.55 | C 4.14 | Q 4.44 | A 4.35 | E 5.21 | G 4.35 | S 4.1 | L 4.1 | M 4.24 | D 5.1 | N 4.82 | Y 3.89 | P 3.58 | V 4.17 | F 3.61 | T 4.87
A18: Q 4.28 | C 4.43 | S 4.31 | D 4.89 | I 4.14 | K 4.06 | E 5.02 | T 4.35 | L 4.2 | G 4.35 | F 3.82 | P 4.88 | H 4.8 | N 4.42 | M 4.57 | R 4.56
E12: K 3.81 | V 4.17 | I 4.02 | H 3.46 | M 3.98 | A 3.89 | W 3.26 | Y 3.53 | L 3.72 | R 3.86 | T 4.32 | G 4.42 | Q 4.18 | S 4.02 | N 4.5 | F 3.82 | P 4.63 | D 4.43 | C 3.85
I5: E 4.35 | K 4.71 | D 5.19 | L 4.36 | T 4.87 | H 4.94 | Q 4.97 | F 4.18 | R 4.57 | P 4.46 | N 4.79 | V 4.54 | C 4.66 | G 4.9 | Y 4.45 | W 4.47 | M 5.16 | S 4.8 | A 4.77
I2: K 4.56 | T 5 | N 5.13 | E 5.26 | R 4.78 | M 4.94 | V 4.19 | W 4.37 | S 4.99 | Y 4.24 | L 4.91 | P 4.96 | H 4.9 | G 4.57 | F 4.81 | Q 4.79 | C 4.88 | A 4.94 | D 4.99
E9: W 3.63 | M 3.22 | L 2.97 | S 4.22 | Y 3.48 | G 4.23 | V 3.88 | H 4.71 | R 3.08 | P 4.08 | N 4.5 | C 3.76 | T 4.12 | I 3.29 | D 4.2 | K 3.97 | F 2.69 | A 4.19 | Q 4.14
E17: Y 3.79 | H 4.18 | C 3.92 | M 3.86 | N 3.63 | K 4.23 | V 3.65 | Q 3.73 | G 4.18 | R 3.7 | S 4.17 | I 4.12 | F 3.55 | D 4.18 | A 4.14 | T 4.34 | L 3.76 | P 4.41 | W 3.27
G4: Q 4.46 | A 4.47 | V 3.9 | T 4.2 | N 3.67 | C 4.32 | S 4.45 | H 4.36 | W 3.8 | L 3.27 | M 3.92 | E 4.53 | Y 3.73 | R 3.08 | F 4.24 | P 4.33 | D 4.79 | K 4.26 | I 3.15
K8: M 4.49 | Y 3.69 | T 5.01 | N 3.88 | S 3.98 | W 3.68 | Q 4.3 | H 4.4 | E 5.05 | C 4 | D 4.61 | G 4.6 | I 4.5 | P 4.72 | V 4.2 | F 3.97 | R 4.43 | L 3.85 | A 3.75
Q3: D 5.2 | S 4.56 | L 3.54 | T 4.81 | E 5.07 | Y 3.47 | F 3.61 | R 4.43 | P 4.19 | A 4.83 | I 3.88 | W 3.58 | V 4.34 | H 4.68 | K 4.27 | C 4.28 | N 3.77 | M 4.18 | G 4.33
A1: N 5.11 | S 4.67 | R 4.55 | Y 3.71 | H 4.21 | T 4.6 | V 4.18 | W 3.23 | L 4.21 | K 4.32 | M 4.09 | Q 4.23 | P 4.47 | I 3.94
K10: Q 4.57 | T 4.68 | H 4.38 | N 4.71 | R 4.04 | P 4.18 | L 4.08 | S 4.61 | W 3.73 | M 4.67 | Y 4.11 | F 3.71 | D 4.47 | I 3.8 | E 4 | V 3.9 | G 4.17 | A 4.67 | C 4.54
